From patent US20060024698, “Method to protect DNA ends” (published 2006)

Experiments:
[1] = biological target: T1, DdrA (DR0423) (Deinococcus radiodurans R1, UniProt Q9RX92 SEQ:1-208); assay: EMSA; 4 uM DdrA; not disrupted by 1000-2000 fold excess of 5'-extension oligo; details: tags: untagged, expressed in E. coli from pEAW298; chain copies: 8-10 subunit oligomer in solution by gel filtration (stated); label: 3'-32P ddATP; 18 bp hairpin with 16 nt 3' single-strand extension
T1 sequence: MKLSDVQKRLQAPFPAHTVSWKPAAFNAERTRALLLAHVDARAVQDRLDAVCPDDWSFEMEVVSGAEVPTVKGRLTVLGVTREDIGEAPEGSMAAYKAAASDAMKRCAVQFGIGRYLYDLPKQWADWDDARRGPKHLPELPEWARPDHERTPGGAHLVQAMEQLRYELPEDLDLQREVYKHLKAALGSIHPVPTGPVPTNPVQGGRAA

[2] = biological target: T1, DdrA (DR0423); assay: FP; KD,app; 1.0 nM DNA, 30 C, 30 min; details: tags: untagged, expressed in E. coli from pEAW298; chain copies: 8-10 subunit oligomer in solution by gel filtration (stated); label: 3' fluorescent tag
Experimental: FIG. 9 is a graph of fluorescence anisotropy data for DdrA binding to single-stranded DNA. Increasing concentrations of DdrA protein were incubated with 3′-fluorescently tagged DNA (1.0 nM) at 30° C. for 30 minutes. Samples were analyzed using the Beacons 2000 Fluorescence Polarization System and a curve was generated suing CURVE EXPERT 1.3 software. The K_{D,app} for each substrate is the concentration of DdrA when 50% of the DNA is bound as determined by the generated curve fit.

B1: hairpin with 3' extension (oligo A) (structured_DNA)
DNA: TTAACGACCGTCGACCTGCAGGTCGACGGTCGTTAACGTCTCTCAGATTGT
modifications: 3'-terminal ddA added
B1: binds [1].

With GGCCTCGCGGTAGCTGAGCTCGGAGCGCACGATTCGCACTGCTGATGTTC (ssDNA) [50 nt ssDNA] the Kd [2] was 118 nM.

For AAGCACAATTACCCACGC (ssDNA) [18 nt ssDNA], the Kd [2] was 640 nM.

GCGTGGGTAATTGTGCTTCAATGGACTGAC (ssDNA) [30 nt ssDNA] was tested, and the Kd [2] was 406 nM.
